Results: patent US20150368338A1 (Janssen / Centocor, published 2015)

Key:
[1] = molecular target: T1, IFN-α1 (human, UniProt A0A087WWS6 25-190); assay: ProteOn
T1 construct: also called Ala114 IFN-αD

[2] = molecular target: T2, IFN-αH2 (human, UniProt P01570 24-189); assay: ProteOn
T2 construct: also called IFN-α14

[3] = molecular target: T3, IFN-αD (human, UniProt A0A087WWS6 25-190); assay: ProteOn
T3 construct: also called Val114 IFN-α1
T3 chain: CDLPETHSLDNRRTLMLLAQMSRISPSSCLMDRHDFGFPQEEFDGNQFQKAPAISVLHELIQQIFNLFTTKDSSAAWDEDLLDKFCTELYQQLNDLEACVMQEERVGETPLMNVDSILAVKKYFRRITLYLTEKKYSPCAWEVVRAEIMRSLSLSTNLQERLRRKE

[4] = molecular target: IFN-β (human, UniProt P01574 22-187); assay: ProteOn
[5] = molecular target: T4, IFN-αWA (human, UniProt P05015 24-189); assay: ProteOn
T4 construct: also called IFN-α16

[6] = molecular target: T5, Chimp IFN-ω (chimpanzee, UniProt P05000 24-195 (human entry)); assay: ProteOn
T5 construct: also called chimpanzee IFN-ω

[7] = molecular target: T6, IFN-αC (human, UniProt P01566 24-189); assay: ProteOn
T6 construct: also called IFN-α10

[8] = molecular target: T7, IFN-αJ1 (human, UniProt P01567 24-189); assay: ProteOn
T7 construct: also called IFN-α7

[9] = molecular target: T8, IFN-α4a (human, UniProt P05014 24-189); assay: ProteOn
T8 construct: also called IFN-αM1

[10] = molecular target: T9, IFN-αK (human, UniProt P05013 24-189); assay: ProteOn
T9 construct: also called IFN-α6

[11] = molecular target: T10, IFN-αF (human, UniProt P01568 24-189); assay: ProteOn
T10 construct: also called IFN-α21
T10 chain: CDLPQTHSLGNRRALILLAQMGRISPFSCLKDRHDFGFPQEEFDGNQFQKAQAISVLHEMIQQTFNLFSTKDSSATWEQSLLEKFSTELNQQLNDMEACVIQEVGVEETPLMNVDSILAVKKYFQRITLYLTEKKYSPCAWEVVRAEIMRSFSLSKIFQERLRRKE

[12] = molecular target: T11, Cyno IFN-ω (cynomolgus, UniProt P05000 24-195 (human entry)); assay: ProteOn
T11 construct: also called cynomolgus IFN-ω
T11 chain: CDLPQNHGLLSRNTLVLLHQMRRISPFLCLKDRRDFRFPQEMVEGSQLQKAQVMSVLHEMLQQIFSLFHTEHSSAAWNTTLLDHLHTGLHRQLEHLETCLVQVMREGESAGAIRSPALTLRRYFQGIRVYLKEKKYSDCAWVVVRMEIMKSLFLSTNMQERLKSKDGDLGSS

[13] = molecular target: T12, IFN-αG (human, UniProt P01569 24-189); assay: ProteOn
T12 construct: also called IFN-α5

[14] = molecular target: T2, IFN-αH2; assay: cell-based or functional assay
[15] = molecular target: T4, IFN-αWA; assay: cell-based or functional assay
[16] = molecular target: T6, IFN-αC; assay: cell-based or functional assay
[17] = molecular target: T7, IFN-αJ1; assay: cell-based or functional assay
[18] = molecular target: T13, human IFN-ω (human, UniProt P05000 24-195); assay: cell-based or functional assay
[19] = molecular target: T8, IFN-α4a; assay: cell-based or functional assay
[20] = molecular target: T9, IFN-αK; assay: cell-based or functional assay
[21] = molecular target: T10, IFN-αF; assay: cell-based or functional assay
[22] = molecular target: T12, IFN-αG; assay: cell-based or functional assay
[23] = molecular target: T14, Human IFN-ω T80E variant with a C-terminal 6xHis-Tag (human, UniProt P05000 24-195); assay: complex purified by size exclusion and crystallized
Description: The Fab was received in 20 mM Tris pH 7.4, 50 mM NaCl. […] The protein was received in 20 mM Tris, pH 7.4, 50 mM NaCL.

[24] = molecular target: T14, Human IFN-ω T80E variant with a …; assay: complex purified by size exclusion and crystallized, X-ray structure
[25] = molecular target: T2, IFN-αH2; assay: cell-based or functional assay; remark: listed apart in the source
[26] = molecular target: IFN-αI (human, UniProt P01571 24-189); assay: cell-based or functional assay
[27] = molecular target: T4, IFN-αWA; assay: cell-based or functional assay; remark: listed apart in the source
[28] = molecular target: T6, IFN-αC; assay: cell-based or functional assay; remark: listed apart in the source
[29] = molecular target: T7, IFN-αJ1; assay: cell-based or functional assay; remark: listed apart in the source
[30] = molecular target: T13, human IFN-ω; assay: cell-based or functional assay; remark: listed apart in the source
[31] = molecular target: T8, IFN-α4a; assay: cell-based or functional assay; remark: listed apart in the source
[32] = molecular target: T9, IFN-αK; assay: cell-based or functional assay; remark: listed apart in the source
[33] = molecular target: T10, IFN-αF; assay: cell-based or functional assay
[34] = molecular target: T12, IFN-αG; assay: cell-based or functional assay; remark: listed apart in the source
[35] = molecular target: T14, Human IFN-ω T80E variant with a …; assay: complex crystallized, X-ray structure

B1: IFWM371 (antibody, IgG1, V domains shown)
VH: EVQLVQSGAEVKKPGESLKISCKGSGYSFTSYWIGWVRQMPGKGLEWMGIIDPSDSDTRYSPSFQGQVTISADKSISTAYLQWSSLKASDTAMYYCARHPGLNWAPDFDYWGQGTLVTVSS
VL: not shown
notes: Fab cloned into IgG1/kappa background; also called IFWB351; parental mAb
binding result [1]: no binding | Kd [2]: 0.179 nM | binding result [3]: no binding | binding result [4]: no binding | Kd [5]: 3.18 nM | Kd [6]: 1.08 nM | Kd [7]: 1.67 nM | Kd [8]: 10.8 nM | Kd [9]: 5.39 nM | Kd [10]: 0.245 nM | Kd [11]: 5.31 nM | Kd [12]: 0.887 nM | Kd [13]: 1.11 nM | IC50 (nM), ISRE reporter gene assay [14]: 9.6 nM | IC50 (nM), ISRE reporter gene assay [15]: 74.2 nM | IC50 (nM), ISRE reporter gene assay [16]: 53.9 nM | IC50 (nM), ISRE reporter gene assay [17]: 35.7 nM | IC50 (nM), ISRE reporter gene assay [18]: 43.9 nM | IC50 (nM), ISRE reporter gene assay [19]: 32.8 nM | IC50 (nM), ISRE reporter gene assay [20]: 7.3 nM | IC50 (nM), ISRE reporter gene assay [21]: 16 nM | IC50 (nM), ISRE reporter gene assay [22]: 12.9 nM

B2: Fab IFWM371 (His-tagged, IgG1/kappa isotype) (Fab, V domains shown)
VH: B1 VH
VL: not shown
notes: His-tagged Fab expressed in HEK293 cells for crystallography; C-terminal 6xHis tag; also called FabM371; Fab of IFWM371
binding result [23]: binds

B3: Fab of IFWM3525 (Fab, V domains shown)
VH: B1 VH
VL: DIQMTQSPSSLSASVGDRVTITCRASQSIDNSYLNWYQQKPGKAPKLLIYGASSLQSGVPSRFSGSGSGTDFTLTISSLQPEDFATYYCQQGYDFPLTFGQGTKVEIK
notes: Fab for crystallography with C-terminal 6xHis tag; also called Fab IFWM3525
binding result [24]: binds

B4: IFWM3525 (antibody, IgG1, V domains shown)
VH: B1 VH
VL: B3 VL
IC50, ISRE reporter gene assay [25]: 0.015 nM | IC50, ISRE reporter gene assay [26]: 0.24 nM | IC50, ISRE reporter gene assay [27]: 0.066 nM | IC50, ISRE reporter gene assay [28]: 0.034 nM | IC50, ISRE reporter gene assay [29]: 0.084 nM | IC50, ISRE reporter gene assay [30]: 0.019 nM | IC50, ISRE reporter gene assay [31]: 0.042 nM | IC50, ISRE reporter gene assay [32]: 0.007 nM | IC50, ISRE reporter gene assay [33]: 0.082 nM | IC50, ISRE reporter gene assay [34]: 0.019 nM

B5: Fab IFWM3421 (Fab, V domains shown)
VH: B1 VH
VL: DIQMTQSPSSLSASVGDRVTITCRASQSIDGFLNWYQQKPGKAPKLLIYFASSLQSGVPSRFSGSGSGTDFTLTISSLQPEDFATYYCQQSYDLPITFGQGTKVEIK
notes: also called Fab3421; FabM3421
binding result [35]: binds
